Molecular target: binding partner of C5A (XPA23)
Assay: Biacore K-off

Row | fold difference in affinity vs original | Binder
1 | 1.07 fold | C5A (XPA23) VL Q27D (antibody, V domains shown) VH: EVQLLESGGGLVQPGGSLRLSCAASGFTFSKYFMFWVRQAPGKGLEWVSVISPSGGMTRYADSVKGRFTISRDNSKNTLYLQMNSLRAEDTAVYYCARVGYGGNSDYWGQGTLVTVSS VL: DIQMTQSPSSVSASVGDRLTIICRASDDINRWLAWYQQTPGNAPKLLIHSATSLQSGVPSRFSGSGSGTDFTLTINSLQPEDFATYYCQQADSFPLTFGGGTKVEIK
2 | 3.3 fold | C5A (XPA23) VL Q27S (antibody, V domains shown) VH: EVQLLESGGGLVQPGGSLRLSCAASGFTFSKYFMFWVRQAPGKGLEWVSVISPSGGMTRYADSVKGRFTISRDNSKNTLYLQMNSLRAEDTAVYYCARVGYGGNSDYWGQGTLVTVSS VL: DIQMTQSPSSVSASVGDRLTIICRASSDINRWLAWYQQTPGNAPKLLIHSATSLQSGVPSRFSGSGSGTDFTLTINSLQPEDFATYYCQQADSFPLTFGGGTKVEIK
3 | 0.89 fold | C5A (XPA23) VL Q27R (antibody, V domains shown) VH: EVQLLESGGGLVQPGGSLRLSCAASGFTFSKYFMFWVRQAPGKGLEWVSVISPSGGMTRYADSVKGRFTISRDNSKNTLYLQMNSLRAEDTAVYYCARVGYGGNSDYWGQGTLVTVSS VL: DIQMTQSPSSVSASVGDRLTIICRASRDINRWLAWYQQTPGNAPKLLIHSATSLQSGVPSRFSGSGSGTDFTLTINSLQPEDFATYYCQQADSFPLTFGGGTKVEIK
4 | 0.64 fold | C5A (XPA23) VL Q27T (antibody, V domains shown) VH: EVQLLESGGGLVQPGGSLRLSCAASGFTFSKYFMFWVRQAPGKGLEWVSVISPSGGMTRYADSVKGRFTISRDNSKNTLYLQMNSLRAEDTAVYYCARVGYGGNSDYWGQGTLVTVSS VL: DIQMTQSPSSVSASVGDRLTIICRASTDINRWLAWYQQTPGNAPKLLIHSATSLQSGVPSRFSGSGSGTDFTLTINSLQPEDFATYYCQQADSFPLTFGGGTKVEIK
5 | 1.09 fold | C5A (XPA23) VL Q27H (antibody, V domains shown) VH: EVQLLESGGGLVQPGGSLRLSCAASGFTFSKYFMFWVRQAPGKGLEWVSVISPSGGMTRYADSVKGRFTISRDNSKNTLYLQMNSLRAEDTAVYYCARVGYGGNSDYWGQGTLVTVSS VL: DIQMTQSPSSVSASVGDRLTIICRASHDINRWLAWYQQTPGNAPKLLIHSATSLQSGVPSRFSGSGSGTDFTLTINSLQPEDFATYYCQQADSFPLTFGGGTKVEIK
6 | 0.97 fold | C5A (XPA23) VL N30T (antibody, V domains shown) VH: EVQLLESGGGLVQPGGSLRLSCAASGFTFSKYFMFWVRQAPGKGLEWVSVISPSGGMTRYADSVKGRFTISRDNSKNTLYLQMNSLRAEDTAVYYCARVGYGGNSDYWGQGTLVTVSS VL: DIQMTQSPSSVSASVGDRLTIICRASQDITRWLAWYQQTPGNAPKLLIHSATSLQSGVPSRFSGSGSGTDFTLTINSLQPEDFATYYCQQADSFPLTFGGGTKVEIK
7 | 1.08 fold | C5A (XPA23) VL Q27E (antibody, V domains shown) VH: EVQLLESGGGLVQPGGSLRLSCAASGFTFSKYFMFWVRQAPGKGLEWVSVISPSGGMTRYADSVKGRFTISRDNSKNTLYLQMNSLRAEDTAVYYCARVGYGGNSDYWGQGTLVTVSS VL: DIQMTQSPSSVSASVGDRLTIICRASEDINRWLAWYQQTPGNAPKLLIHSATSLQSGVPSRFSGSGSGTDFTLTINSLQPEDFATYYCQQADSFPLTFGGGTKVEIK

Continued, binder first:

Row | Binder | fold difference in affinity vs original
8 | C5A (XPA23) VL D28K (antibody, V domains shown) VH: EVQLLESGGGLVQPGGSLRLSCAASGFTFSKYFMFWVRQAPGKGLEWVSVISPSGGMTRYADSVKGRFTISRDNSKNTLYLQMNSLRAEDTAVYYCARVGYGGNSDYWGQGTLVTVSS VL: DIQMTQSPSSVSASVGDRLTIICRASQKINRWLAWYQQTPGNAPKLLIHSATSLQSGVPSRFSGSGSGTDFTLTINSLQPEDFATYYCQQADSFPLTFGGGTKVEIK | 0.82 fold
9 | C5A (XPA23) VL D28T (antibody, V domains shown) VH: EVQLLESGGGLVQPGGSLRLSCAASGFTFSKYFMFWVRQAPGKGLEWVSVISPSGGMTRYADSVKGRFTISRDNSKNTLYLQMNSLRAEDTAVYYCARVGYGGNSDYWGQGTLVTVSS VL: DIQMTQSPSSVSASVGDRLTIICRASQTINRWLAWYQQTPGNAPKLLIHSATSLQSGVPSRFSGSGSGTDFTLTINSLQPEDFATYYCQQADSFPLTFGGGTKVEIK | 1.19 fold
10 | C5A (XPA23) VL D28S (antibody, V domains shown) VH: EVQLLESGGGLVQPGGSLRLSCAASGFTFSKYFMFWVRQAPGKGLEWVSVISPSGGMTRYADSVKGRFTISRDNSKNTLYLQMNSLRAEDTAVYYCARVGYGGNSDYWGQGTLVTVSS VL: DIQMTQSPSSVSASVGDRLTIICRASQSINRWLAWYQQTPGNAPKLLIHSATSLQSGVPSRFSGSGSGTDFTLTINSLQPEDFATYYCQQADSFPLTFGGGTKVEIK | 5.25 fold
11 | C5A (XPA23) VL N30E (antibody, V domains shown) VH: EVQLLESGGGLVQPGGSLRLSCAASGFTFSKYFMFWVRQAPGKGLEWVSVISPSGGMTRYADSVKGRFTISRDNSKNTLYLQMNSLRAEDTAVYYCARVGYGGNSDYWGQGTLVTVSS VL: DIQMTQSPSSVSASVGDRLTIICRASQDIERWLAWYQQTPGNAPKLLIHSATSLQSGVPSRFSGSGSGTDFTLTINSLQPEDFATYYCQQADSFPLTFGGGTKVEIK | 0.64 fold
12 | C5A (XPA23) VL D28Y (antibody, V domains shown) VH: EVQLLESGGGLVQPGGSLRLSCAASGFTFSKYFMFWVRQAPGKGLEWVSVISPSGGMTRYADSVKGRFTISRDNSKNTLYLQMNSLRAEDTAVYYCARVGYGGNSDYWGQGTLVTVSS VL: DIQMTQSPSSVSASVGDRLTIICRASQYINRWLAWYQQTPGNAPKLLIHSATSLQSGVPSRFSGSGSGTDFTLTINSLQPEDFATYYCQQADSFPLTFGGGTKVEIK | 1.45 fold
13 | C5A (XPA23) VL N30S (antibody, V domains shown) VH: EVQLLESGGGLVQPGGSLRLSCAASGFTFSKYFMFWVRQAPGKGLEWVSVISPSGGMTRYADSVKGRFTISRDNSKNTLYLQMNSLRAEDTAVYYCARVGYGGNSDYWGQGTLVTVSS VL: DIQMTQSPSSVSASVGDRLTIICRASQDISRWLAWYQQTPGNAPKLLIHSATSLQSGVPSRFSGSGSGTDFTLTINSLQPEDFATYYCQQADSFPLTFGGGTKVEIK | 0.72 fold
14 | C5A (XPA23) VL D28H (antibody, V domains shown) VH: EVQLLESGGGLVQPGGSLRLSCAASGFTFSKYFMFWVRQAPGKGLEWVSVISPSGGMTRYADSVKGRFTISRDNSKNTLYLQMNSLRAEDTAVYYCARVGYGGNSDYWGQGTLVTVSS VL: DIQMTQSPSSVSASVGDRLTIICRASQHINRWLAWYQQTPGNAPKLLIHSATSLQSGVPSRFSGSGSGTDFTLTINSLQPEDFATYYCQQADSFPLTFGGGTKVEIK | 1.23 fold
15 | C5A (XPA23) VL N30R (antibody, V domains shown) VH: EVQLLESGGGLVQPGGSLRLSCAASGFTFSKYFMFWVRQAPGKGLEWVSVISPSGGMTRYADSVKGRFTISRDNSKNTLYLQMNSLRAEDTAVYYCARVGYGGNSDYWGQGTLVTVSS VL: DIQMTQSPSSVSASVGDRLTIICRASQDIRRWLAWYQQTPGNAPKLLIHSATSLQSGVPSRFSGSGSGTDFTLTINSLQPEDFATYYCQQADSFPLTFGGGTKVEIK | 0.74 fold
16 | C5A (XPA23) VL D28E (antibody, V domains shown) VH: EVQLLESGGGLVQPGGSLRLSCAASGFTFSKYFMFWVRQAPGKGLEWVSVISPSGGMTRYADSVKGRFTISRDNSKNTLYLQMNSLRAEDTAVYYCARVGYGGNSDYWGQGTLVTVSS VL: DIQMTQSPSSVSASVGDRLTIICRASQEINRWLAWYQQTPGNAPKLLIHSATSLQSGVPSRFSGSGSGTDFTLTINSLQPEDFATYYCQQADSFPLTFGGGTKVEIK | 0.74 fold
17 | C5A (XPA23) VL N30H (antibody, V domains shown) VH: EVQLLESGGGLVQPGGSLRLSCAASGFTFSKYFMFWVRQAPGKGLEWVSVISPSGGMTRYADSVKGRFTISRDNSKNTLYLQMNSLRAEDTAVYYCARVGYGGNSDYWGQGTLVTVSS VL: DIQMTQSPSSVSASVGDRLTIICRASQDIHRWLAWYQQTPGNAPKLLIHSATSLQSGVPSRFSGSGSGTDFTLTINSLQPEDFATYYCQQADSFPLTFGGGTKVEIK | 1 fold
18 | C5A (XPA23) VL D28N (antibody, V domains shown) VH: EVQLLESGGGLVQPGGSLRLSCAASGFTFSKYFMFWVRQAPGKGLEWVSVISPSGGMTRYADSVKGRFTISRDNSKNTLYLQMNSLRAEDTAVYYCARVGYGGNSDYWGQGTLVTVSS VL: DIQMTQSPSSVSASVGDRLTIICRASQNINRWLAWYQQTPGNAPKLLIHSATSLQSGVPSRFSGSGSGTDFTLTINSLQPEDFATYYCQQADSFPLTFGGGTKVEIK | 1 fold
19 | C5A (XPA23) VL N30K (antibody, V domains shown) VH: EVQLLESGGGLVQPGGSLRLSCAASGFTFSKYFMFWVRQAPGKGLEWVSVISPSGGMTRYADSVKGRFTISRDNSKNTLYLQMNSLRAEDTAVYYCARVGYGGNSDYWGQGTLVTVSS VL: DIQMTQSPSSVSASVGDRLTIICRASQDIKRWLAWYQQTPGNAPKLLIHSATSLQSGVPSRFSGSGSGTDFTLTINSLQPEDFATYYCQQADSFPLTFGGGTKVEIK | 0.61 fold
20 | C5A (XPA23) VL N30Q (antibody, V domains shown) VH: EVQLLESGGGLVQPGGSLRLSCAASGFTFSKYFMFWVRQAPGKGLEWVSVISPSGGMTRYADSVKGRFTISRDNSKNTLYLQMNSLRAEDTAVYYCARVGYGGNSDYWGQGTLVTVSS VL: DIQMTQSPSSVSASVGDRLTIICRASQDIQRWLAWYQQTPGNAPKLLIHSATSLQSGVPSRFSGSGSGTDFTLTINSLQPEDFATYYCQQADSFPLTFGGGTKVEIK | 0.6 fold
21 | C5A (XPA23) VL N30D (antibody, V domains shown) VH: EVQLLESGGGLVQPGGSLRLSCAASGFTFSKYFMFWVRQAPGKGLEWVSVISPSGGMTRYADSVKGRFTISRDNSKNTLYLQMNSLRAEDTAVYYCARVGYGGNSDYWGQGTLVTVSS VL: DIQMTQSPSSVSASVGDRLTIICRASQDIDRWLAWYQQTPGNAPKLLIHSATSLQSGVPSRFSGSGSGTDFTLTINSLQPEDFATYYCQQADSFPLTFGGGTKVEIK | 0.81 fold
22 | C5A (XPA23) VL D28R (antibody, V domains shown) VH: EVQLLESGGGLVQPGGSLRLSCAASGFTFSKYFMFWVRQAPGKGLEWVSVISPSGGMTRYADSVKGRFTISRDNSKNTLYLQMNSLRAEDTAVYYCARVGYGGNSDYWGQGTLVTVSS VL: DIQMTQSPSSVSASVGDRLTIICRASQRINRWLAWYQQTPGNAPKLLIHSATSLQSGVPSRFSGSGSGTDFTLTINSLQPEDFATYYCQQADSFPLTFGGGTKVEIK | 0.94 fold
